From patent US11142588B2, “Polypeptides which bind C-X-C chemokine receptor type 4 (CXCR4) and methods of treating or reducing the risk of fibrosis and cancer” (AdAlta Limited, priority 2015, dated 2021)
Where “and” joins values, the source holds several entries; their conditions need not be identical. Identical values can stand only once. Blank lines part the entries; values can stand above or below the molecule they belong to.

What was measured:
[1] = Laser induced choroidal neovascularisation model; format: in vivo, mouse
Experimental: The laser induced choroidal neovascularisation (CNV) is a well characterised and accepted model of choroidal neovascularisation (Fletcher E L et al. (2011) Prog Mol Biol Transl Sci 100:211-286). It is also a rapid method for determining the efficacy of potential treatments that target angiogenesis and fibrosis. Briefly, up to four laser spots are applied to the posterior eye using a continuous wave photocoagulation laser ([…] diode). The laser energy is high enough to create a break in Bruch's membrane. During the following 7-14 days, growth of blood vessels from the choroid into the retina occurs, and is quantified either immuocytochemically, or using fluorescein angiography.
Mice were treated as below: • Group 1 (n=10): laser both eyes-vehicle in one eye; i-body in the other • Group 2 (n=10): Laser one eye (no i-body); other eye unlasered. • The i-body drug was injected intravitreally in 1 μl volume at a concentration up to 20 mg/ml.
The expression of genes associated with angiogenesis and fibrosis was examined. Total RNA was isolated from the retina and RPE/choroidal samples using commercial spin columns (RNeasy, Qiagen, Valencia Calif.). A PCR gene array was used to assess the expression of 84 genes involved angiogenesis or fibrosis (Qiagen). Briefly, total RNA samples from untreated, laser treated eyes and untreated fellow eyes (n=9 each group, each 25 ng) were pooled within their respective treatment groups (3 independent experiments containing 3 pooled samples), reversed transcribed (RT2 first strand, Qiagen) and then underwent pre-amplification of the cDNA target templates (RT2 pre-AMP, Qiagen). Samples were added to a commercial mastermix (RT2 SYBR green mastermix, Qiagen) and amplified for 40 cycles (ABI 7900HT, Life Technologies, Grand Island N.Y.). Three independent arrays were performed for each treatment group. The data were analysed using delata delta Ct (ΔΔCt), expressed as fold change and regulation assessed using an unpaired t-test.

[2] = system: human fibrocytes; assay: Binding to human fibrocytes (confocal microscopy); format: cell-based; details: CD45 positive cells of PBMCs
Experimental: PBMCs were smeared on a microscope slide and fixed with acetone at 4° C. for 10 minutes. Following three times washing and rehydration with PBS the slides were incubated with mouse antiFLAG 1:100 dilution over night at 4° C. After washing the slides were incubated with Goat anti-mouse Alex Fluor 568 (to detect i-body by binding anti FLAG) at room temperature for 1 hour. The slides were then washed and incubated with Mouse anti-CD-45 FITC labeled antibody over night at 4° C. After further washing the slides were and mounted with ProLong Gold antifade mountant containing DAPI. Images were captured by using Nikon A1 confocal microscope.

[3] = biological target: T1, human CXCR4 (CXCR4 positive lipoparticles) (Homo sapiens, UniProt P61073); assay: Biacore SPR kinetic binding to immobilised CXCR4 lipoparticles
T1 construct: purchased Integral Molecular LEV-101B
T1 sequence (P61073 whole entry): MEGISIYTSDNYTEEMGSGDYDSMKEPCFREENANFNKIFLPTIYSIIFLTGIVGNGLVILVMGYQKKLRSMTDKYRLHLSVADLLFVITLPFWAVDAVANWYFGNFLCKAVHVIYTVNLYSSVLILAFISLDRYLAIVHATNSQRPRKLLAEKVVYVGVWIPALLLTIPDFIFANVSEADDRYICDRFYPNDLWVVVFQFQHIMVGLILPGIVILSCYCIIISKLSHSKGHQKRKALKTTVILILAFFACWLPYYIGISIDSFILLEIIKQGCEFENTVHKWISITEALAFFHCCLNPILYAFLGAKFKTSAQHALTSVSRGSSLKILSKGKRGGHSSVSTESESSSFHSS

[4] = biological target: T2, CCR4 (Homo sapiens, UniProt P51679); assay: PathHunter (DiscoverX) β-arrestin assay, CCR4; format: cell-based
T2 sequence (P51679 1-360): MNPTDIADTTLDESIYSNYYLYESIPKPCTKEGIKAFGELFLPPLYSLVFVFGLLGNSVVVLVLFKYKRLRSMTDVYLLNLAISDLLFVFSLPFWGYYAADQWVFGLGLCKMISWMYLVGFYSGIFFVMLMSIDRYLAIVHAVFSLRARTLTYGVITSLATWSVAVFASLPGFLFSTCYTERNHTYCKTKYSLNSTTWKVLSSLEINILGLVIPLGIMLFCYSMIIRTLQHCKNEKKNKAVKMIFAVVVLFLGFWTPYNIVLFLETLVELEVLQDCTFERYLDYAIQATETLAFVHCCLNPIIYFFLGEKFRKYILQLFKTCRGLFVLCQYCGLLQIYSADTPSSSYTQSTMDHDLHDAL
Experimental: (FIG. 9) The PathHunter® β-Arrestin assay (DiscoveRx) was performed according to the manufacturer's protocol. Cells were seeded into white walled, 384-well tissue culture-treated microplates (Corning) and normalized at 5,000 cells (or 10,000 cells for CXCR4) in a total volume of […]. Cell growth was at 37° C. (5% CO2, 95% relative humidity). […] Agonists were then added at the EC80 concentration and incubation was continued at 37° C. for 90 min (or 180 min for CCR1). Assay signal was generated through a single addition of 15 μL (50% v/v) of PathHunter Detection reagent cocktail, followed by 1 h incubation at room temperature. Microplates were read following signal generation with a PerkinElmer Envision instrument for chemiluminescent signal detection of relative light units (RLU).

[5] = biological target: CXCR4 (Homo sapiens, UniProt P61073); assay: HitHunter cAMP assay in antagonist mode; format: cell-based; details: SDF-1 at EC80, forskolin 15 μM, read-out: cAMP inhibition IC50
CXCR4, sequence (P61073 whole entry): as the sequence (P61073 whole entry) above

[6] = intravitreal, 1 μl up to 20 mg/ml
[7] = CXCR4 expressed on lipoparticles (Table 4)

- binding to human fibrocytes [2]: capable of binding to human fibrocytes
Molecule: AM3-114: affinity matured CXCR4 i-body, SEQ ID NO: 40
- pro-fibrotic gene expression in treated eyes ([1]; PCR gene array): extensive down regulation of pro fibrotic genes
- contraction of the lasered retinal regions [1, 6]: significant reduction in the contraction
- pathological angiogenesis / lesion size [1, 6]: reduction of the lesion size

- Kd [3, 7]: 9.47 nM and 8.53 nM
- dissociation rate constant (kd) ([3]; off-rate, CXCR4 expressed on lipoparticles (Table 3)): 0.00998
- CCR4 activity [4]: −2%
- IC50 [5]: 225 nM
B1: AM3-523: affinity matured CXCR4 i-body, SEQ ID NO: 56 (protein)
chain: LQVDIVPSQGEISVGESKFFLCQVAGSGSHMRISWFSPNGEKLTPNQQRISVVWNDDSSSTLTIYNANIDDAGIYKCVVWVGGYRHRALVLGEATVNVKIFQ
modifications: protein sequence encoding AM3-523
- dissociation rate constant (kd) [3, 7]: 9150 M⁻¹ s⁻¹ and 8610 M⁻¹ s⁻¹
